Laboratory results taken from the RNAGym collection of RNA variant scans (doi:10.7554/elife.80360).

B1: Twister Ribozyme (parent)
chain: AACACUGCCAAUGCCGGUCCCAAGCCCGGAUAAAAGUGGAGGGGGCGG

Variants of: B1
Test: self-cleavage, relative activity (ratio to wild type); higher = more cleavage; co-transcriptional

| Variant | self-cleavage |
| --- | --- |
| AACACUGCCAAUGCCGGUCCCAAGCCCGGAUAAAACUGGAGGGGGGGG [G36C C46G] | 0.45 |
| AACACUGCCAAUGCCGGUCCCAAGCCCGGAUAAAACUGGAGGGGGAGG [G36C C46A] | 0.367 |
| AACACUGCCAAUGCCGGUCCCAAGCCCGGAUAAAGGUGCAGGGGGCGG [A35G G39C] | 0.178 |
| AACACUGCCAAUGCCGGUCCCAAGCCCGGAUAAAUGUGGAGGGGGCGG [A35U] | 0.969 |
| AACACUGCCAAUGCCGGUCCCAAGCCCGGAUAAAUGUGGGGGGGGCGG [A35U A40G] | 0.133 |
| AACACUGCCAAUGCCGGUCCCAAGCCCGGAUAAAUGUGGUGGGGGCGG [A35U A40U] | 0.253 |
| AACACUGCCAAUGCCGGUCCCAAGCCCGGAUAAAGGUGGAGGAGGCGG [A35G G43A] | 0.152 |
| AACACUGCCAAUGCCGGUCCCAAGCCCGGAUAAAAAUGGAGGGGGCAG [G36A G47A] | 0.557 |
| AACACUGCCAAUGCCGGUCCCAAGCCCGGAUAAAAAUGGAGGGGGCUG [G36A G47U] | 0.76 |
| AACACUGCCAAUGCCGGUCCCAAGCCCGGAUAAAACUGGAGGGGUCGG [G36C G45U] | 0.257 |
| AACACUGCCAAUGCCGGUCCCAAGCCCGGAUAAAACUGGAGGGGCCGG [G36C G45C] | 0.201 |
| AACACUGCCAAUGCCGGUCCCAAGCCCGGAUAAAAUUGGUGGGGGCGG [G36U A40U] | 0.141 |
| AACACUGCCAAUGCCGGUCCCAAGCCCGGAUAAAAUUGGCGGGGGCGG [G36U A40C] | 0.122 |
| AACACUGCCAAUGCCGGUCCCAAGCCCGGAUAAAAGAGGAGGGGGUGG [U37A C46U] | 0.886 |
| AACACUGCCAAUGCCGGUCCCAAGCCCGGAUAAAAGAGGAGGGGGGGG [U37A C46G] | 0.748 |
| AACACUGCCAAUGCCGGUCCCAAGCCCGGAUAAAUGUGGAGGGGGCCG [A35U G47C] | 0.694 |
| AACACUGCCAAUGCCGGUCCCAAGCCCGGAUAAAUGUAGAGGGGGCGG [A35U G38A] | 0.925 |
| AACACUGCCAAUGCCGGUCCCAAGCCCGGAUAAAUGUUGAGGGGGCGG [A35U G38U] | 0.942 |
| AACACUGCCAAUGCCGGUCCCAAGCCCGGAUAAAAUUGGAGGGCGCGG [G36U G44C] | 0.372 |
| AACACUGCCAAUGCCGGUCCCAAGCCCGGAUAAAAUUGGAGGGUGCGG [G36U G44U] | 0.355 |
| AACACUGCCAAUGCCGGUCCCAAGCCCGGAUAAAAUUGGAGGGAGCGG [G36U G44A] | 0.717 |
| AACACUGCCAAUGCCGGUCCCAAGCCCGGAUAAAAUGGGAGGGGGCGG [G36U U37G] | 0.37 |
| AACACUGCCAAUGCCGGUCCCAAGCCCGGAUAAAAAUGUAGGGGGCGG [G36A G39U] | 0.12 |
| AACACUGCCAAUGCCGGUCCCAAGCCCGGAUAAAACUCGAGGGGGCGG [G36C G38C] | 0.217 |
| AACACUGCCAAUGCCGGUCCCAAGCCCGGAUAAAACUAGAGGGGGCGG [G36C G38A] | 0.459 |
| AACACUGCCAAUGCCGGUCCCAAGCCCGGAUAAAACUGGUGGGGGCGG [G36C A40U] | 0.149 |
| AACACUGCCAAUGCCGGUCCCAAGCCCGGAUAAAGGUCGAGGGGGCGG [A35G G38C] | 0.632 |

| Variant | self-cleavage |
| --- | --- |
| AACACUGCCAAUGCCGGUCCCAAGCCCGGAUAAAAUUGGAGCGGGCGG [G36U G42C] | 0.16 |
| AACACUGCCAAUGCCGGUCCCAAGCCCGGAUAAAAUUGGAGAGGGCGG [G36U G42A] | 0.123 |
| AACACUGCCAAUGCCGGUCCCAAGCCCGGAUAAAUGUGGAGCGGGCGG [A35U G42C] | 0.539 |
| AACACUGCCAAUGCCGGUCCCAAGCCCGGAUAAAUGUGGAGAGGGCGG [A35U G42A] | 0.376 |
| AACACUGCCAAUGCCGGUCCCAAGCCCGGAUAAAGGUGGAGGGGGCAG [A35G G47A] | 0.706 |
| AACACUGCCAAUGCCGGUCCCAAGCCCGGAUAAAGGUGGAUGGGGCGG [A35G G41U] | 0.283 |
| AACACUGCCAAUGCCGGUCCCAAGCCCGGAUAAAGGUGGACGGGGCGG [A35G G41C] | 0.143 |
| AACACUGCCAAUGCCGGUCCCAAGCCCGGAUAAAUGGGGAGGGGGCGG [A35U U37G] | 0.69 |
| AACACUGCCAAUGCCGGUCCCAAGCCCGGAUAAAUGCGGAGGGGGCGG [A35U U37C] | 0.633 |
| AACACUGCCAAUGCCGGUCCCAAGCCCGGAUAAAAUUUGAGGGGGCGG [G36U G38U] | 0.167 |
| AACACUGCCAAUGCCGGUCCCAAGCCCGGAUAAAAUUAGAGGGGGCGG [G36U G38A] | 0.452 |
| AACACUGCCAAUGCCGGUCCCAAGCCCGGAUAAAACUGGAGCGGGCGG [G36C G42C] | 0.189 |
| AACACUGCCAAUGCCGGUCCCAAGCCCGGAUAAAACUGGAGAGGGCGG [G36C G42A] | 0.134 |
| AACACUGCCAAUGCCGGUCCCAAGCCCGGAUAAAAAUGGACGGGGCGG [G36A G41C] | 0.133 |
| AACACUGCCAAUGCCGGUCCCAAGCCCGGAUAAAAAUGGAAGGGGCGG [G36A G41A] | 0.13 |
| AACACUGCCAAUGCCGGUCCCAAGCCCGGAUAAAGGUGGAGGGGGUGG [A35G C46U] | 0.854 |
| AACACUGCCAAUGCCGGUCCCAAGCCCGGAUAAAGGUGGAGGGGGGGG [A35G C46G] | 0.868 |
| AACACUGCCAAUGCCGGUCCCAAGCCCGGAUAAAAAUGGAGGGGGUGG [G36A C46U] | 0.766 |
| AACACUGCCAAUGCCGGUCCCAAGCCCGGAUAAAAAUGGAGGGGGGGG [G36A C46G] | 0.7 |
| AACACUGCCAAUGCCGGUCCCAAGCCCGGAUAAAGGUGGAGGGGUCGG [A35G G45U] | 0.659 |
| AACACUGCCAAUGCCGGUCCCAAGCCCGGAUAAAGGUGGAGGGGACGG [A35G G45A] | 0.889 |
| AACACUGCCAAUGCCGGUCCCAAGCCCGGAUAAAUUUGGAGGGGGCGG [A35U G36U] | 0.472 |
| AACACUGCCAAUGCCGGUCCCAAGCCCGGAUAAAAAUGGAGCGGGCGG [G36A G42C] | 0.168 |
| AACACUGCCAAUGCCGGUCCCAAGCCCGGAUAAAAAUGGAGUGGGCGG [G36A G42U] | 0.128 |
| AACACUGCCAAUGCCGGUCCCAAGCCCGGAUAAAAAUGGAGGGGGCGU [G36A G48U] | 0.809 |
| AACACUGCCAAUGCCGGUCCCAAGCCCGGAUAAAAAUGGAGGGGGCGC [G36A G48C] | 0.99 |
| AACACUGCCAAUGCCGGUCCCAAGCCCGGAUAAAUGUGGAGGGAGCGG [A35U G44A] | 0.843 |
